Test: yeast display, Sf9 membrane polyspecificity reagent, FACS + sequencing; frameworks hold sequencing errors
Method in brief: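 Synthetic nanobody libraries on Saccharomyces cerevisiae BJ5465 were galactose-induced for 36–48 hours, stained 1 hour at 4 °C with 10% biotinylated, detergent-solubilized Sf9 membrane reagent and enriched on streptavidin microbeads. FACS then separated cells into low and high (top ~1%) gates by anti-HA (expression) and streptavidin (reagent binding) fluorescence. Genes were colony-PCR amplified, MiSeq 2 × 250 sequenced and CDR-length filtered. A clone's polyreactivity label is that of its gate of origin.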

Row | Sequence | polyreactivity (PSR sort gate)
1 | QVQLVESGGGLVQAGSSLRLSCAASGFTFNRYAMGWYRQAPGKERELVAAISWSGGSTYYADSVKGRFTISRDNAKNTVYLQMNSLKPEDTEVYYCSDATAYYRYRGGYDYWGQGTQVTVSS | high polyreactivity
2 | QVQLVESGGGLVQAGGSLRLSCAASGITFASYAMGWYRQAPGKERELVAVITRSTGRTYYADSVKGRFTISRDNAKNTVYLQMNSLKPEDTAVYYCAAGYITWYDYWGQGTQVTVSS | high polyreactivity
3 | QVQLVESGGGLGQAGGSLRLSCAASGSIFSSYAMGWYRQAPGKERELVAAISQSGGDTYYADSVKGRFTISRDNAKNTVYLQMNSLKPEDTAVYYSAASVWYYPMDYWGQGTQVTVSS | low polyreactivity
4 | QVQLVESGGGLVQAGGSLRLSCAASGRTFLPNAMGWYRQAPGKDRELVAVITSGGSTNYADSVKGRFTISRDNAKNTVYLQMNSLKPEDTAVYYCAARRWSSSQGHWGKSAGYGYWGQGTQVTVSS | low polyreactivity
5 | QVQLVESGGGLVQAGGSLRLSCAASGLIFKYNDMGWYRQAPGTEREFVAAISWRGGRTYYADSVKGRFTISRDNEKNTVYLQMNSLKPEDTAVYYCNAGYRIAQFPSPHIAYYGYGYWGQGTQVTVSS | high polyreactivity
6 | QVQLVESGGGLVQAGGSLRLSCAASGIIFQHNAMGWYRQAPGKERELVAAISSNGGRTFYPDSVKGRFTISRDNAKNTVYLQMNSLKPEDTAVYYCNRQYPSRYGYWGQGTQVTVSS | high polyreactivity
7 | QVQLVESGGGLVQAGGSLRLSCAASGNTFQDYAMGWYRQAPGKERELVAAITQSGGSTFYADSVKGRFTISRDNAKNTVYLQMNSLKPEDTAVYYCATRTRYPRYYYWGQGTQVTVSS | high polyreactivity
8 | QVQLVESGGGLVQAGGSLRLSCAASGRTFLPYAMGWYRQAPGKEWELVAAIDSSGGSTYYADSVKGRFTISRDNAKNTVYLQMNSLKPEDTAVYYCAADLYSSYYLYDSWGQGTQVTVSS | low polyreactivity
9 | QVQLVESGGGLVQAGGSLRLSCAASGNTFPVYAMGWYRQASGKERELVATITSGGSTNYADSVKGRFTISRDNAKNTVYLQMNSLKQEDTAVYYCARRAVYSKRRYDYWGQGTQVTVSS | low polyreactivity
10 | QVHHVESGGGLVQAGGSLRLSCAASGITFSSYAMGWYRQAPRKERELVAAISYGGGNTYYADSVKGRFTISRDNAKNTVYLQMNSLKPEDTAVYYCNTLYTSYSGLDYWGQGTQVTVSS | high polyreactivity
11 | QVQLVESGGCLVQAGGSHRLSCAASGRTFGYNAMGWYSQAPRKERELVAVIRSGGSTYYADSVKGRYTISRDNAKNTVYFQMNSLKPEDTAVYYCAATGLYNVTSPYSYKYDYWGQGTQVTVSS | low polyreactivity
12 | QLQIVESGGGLVQAGGSLRLSCAASGRIFSYNAMGWYIQAPGKARELVAAITFSGGGTYYADSVKGRFTISRDNAKNTVYLQMNSLNPEYTAVYYCNKVSYGYSTYGYWGQCTQVTVSS | low polyreactivity
13 | QVQLVESGGGLVQAGGSLRLSCAASGNIFNLYAMGWYRQAPGKERELVAAIRGSGSTYYADSVKGRFTISRDNAKNTVYLQMNSLKPEDTAVYYCAAGISGHYYWGQGTQVTVSS | high polyreactivity
14 | QVQLVESGGGLVQAGGSLRLSCAASGSTFGRYAMGWYRQAPGKERELVAAISKSGGSTYYADSVKGRFTISRDNEKNTVYLQMNSLNPEDTAVYYCAATTTRYSYEYWGQGTQVTVSS | low polyreactivity
15 | QVQLVESGGGLVQAGGSLRLSCSASGRTFYHYTMGRYIQAPGKERELVAAITSGGSTYYADSVKGRFPISRDNAKNTVYLQMNSLKPEDTAVYYCARVRPLYHYSRYDYWGQGTQVTVSS | high polyreactivity
16 | PVQLVESGGGLVQAGGPLRLSCAASGFNITSYVMGWYRPAPGKERELVAAISAGGGSTYYADSVKGRFTISRDNAKNTVYLQMNSLIPDDTAVYYCAADPLYEQIYYAIYHYNDGYDYWGQGTQVTVSS | high polyreactivity
17 | QVQLVESGGGLVQAGGSLRLSCAASGSILRYNAMGWYSQARAKEREWVASISRGGGTNYAYSVKGRFTISRDNAKNTVYLQINSLKQEDTAVYYCAALTLRVDYDSQWYSLVDYWGQGTEVTVSS | low polyreactivity
18 | QVQLVESGGGLVQAGGSLRLSCAASGFIFDPYAMGWYRPAPGKERELVAVITYSAGSTYADSVNGRFTISRDNAKNTVYLQMNSLKPEDTAVYYCAKRWWYNVPLGVLYDYWGQGTQVTVSS | low polyreactivity
19 | QVQLVESGGGLVQAGGSLRLSCAASGFILPVYAMGWYRQAPGTERELVAAISSGGSTNYADSVKGRFTISRDNAKNTVYLQMNSLKPEDTEVYYCNKVDWYFGGYKYDYWGQGTQVTVSS | low polyreactivity
20 | QVQLVESGGGLVQAGGSLRLSCAASGRIFNQYGMGWYRQAPGKERELVAAIRSGDSTNYADSVKGRFTISRDNAKNTVYLPMNSLKPEDTAVYYCASDRPGDYAGYDYWGQGTQVTVSS | low polyreactivity
21 | QVQLVESGGGLVQAGGSLRLSCAASGRIFGYYAMGWYRQAPGKERELVAAITWGGGTTRYADSVKGRFTISRDNAKNTVYLQMNSLKPEDTAVYYCATALWVRYYGQGGYIRRYDYWGQGTQVTVSS | high polyreactivity
22 | QVQLVESGGGLVQAGGSLRLSCAASGRTFNHYAMGWYRQAPGKERELVPGITISGGSTYYADSVKGRFTISRDNAKNTVYLQMNSLKPEDTAVYYCNAVYDYYRQSNWTMDYWGQGTQVTVSS | low polyreactivity

Row | Sequence | polyreactivity (PSR sort gate)
23 | QVQLVESGGGLVQAGGSLRLSCAASGFTFIGYAMGWYRQAPGKERELVAAITISGGSTYYADSVKGRFTISRDNAKNTVYLQMNSLKPEDTAVYYCNVYRLAAFYSLRGYRYDYWGQGTQVTVSS | high polyreactivity
24 | QVQLVESGGGLDQAGGSLRLSCAASGRIFGRNAMGWYRQAPGKERELVAAITWSGGSTNYADSVKGRFTISRDNAKNTVYLEMNSLKPEDTAFYYCAKRYTPRPYKGICYYYWGQGTQVTVSS | high polyreactivity
25 | QVQLVESGGGLVQAGGSLRLSCAASGRIFWYNAMGWYRQAPAKERELVAGITRSGGRTYYADSVKGRFTISRDNAKNTVYLQMNSLKPEDTAVYYCAAAPYARRDYEYWGQGTQVTVSS | high polyreactivity
26 | QVHLGESGGGLVQAGGSLRLSGAASGFTFAVNAMGWYRQAPWNERELVAGITSGGRTNYADSVKGRFTISRDNAKNTVYLQMTSLKPEVTAVYYCAAARRYSKGYVPPYYKYRYDYWGQGTHVTVSS | high polyreactivity
27 | QVQLVESGGGLVQAGGSLRLSCAASGNIFITNAMGWYRQAPGKERELVADISFSGGSTNYADSVKGRFTISRDNAKNTVYLQMNSLKPEDTAVYYCAARALASVSAHKYDNWGQGTQVTVST | low polyreactivity
28 | QVQLVESGGGLVQAGGSLRLSCAASGSIFSVYAMGWYRQAPGKERELVATISGSAGRTYYADSVKGRFTISRDNAKNTVYLQMNSLKPEDTAVYYCAARWYKEYYWGQRTQVTVSS | high polyreactivity
29 | QVQLVESGGGLVQAGGSLRLSCAASGSTFVANGMGWYRQAPGKERELVAVISRNGGTTYYADSVKGRFTISRDNAKNTVYLQMNSLKPEDTAVYYCNAKLPVFHYFWMDYWGQGTQVTVSS | high polyreactivity
30 | QDQLVDSGGGLVQAGGSLRLSSSDSGSIFRYYTMGWYRQSPGKERELVARISSSRSTNYADSVKGRFTISRDNAKNTVYLQMNSLKPEDTEVYYCAARAFSWAGFYYWGQGTQVTVSS | low polyreactivity
31 | QVQLGESGGGLVQAGGSLRLSCAASGIIFYEYVMVWYRQAPGKEREFVATISSIGGSTYYADSVKGRFTISRDNAKNTVYLQMNSRKPADTAVYYCAADPDPVVAPGGNWYGDDYWGQGSQVTVSS | high polyreactivity
32 | QVQLVESGGGLVQAGGSLRLSCAASGRTFGIYAMGWYRQAPGKERELVAAISRGGNTYADSVKGRFTISRDNAKNSVYLQMNSLKPEDTAVYYCAADRRYRPGDYWGQGTQVTVSS | high polyreactivity
33 | QVQLVESGGCLVQAGGRLRLSCAASGFIFGRYAMGWYRQAPGKERELVAAITWSGGSTYYADSVKGRFTISRDNAKNTVYLQMNSLKPQDTAVYYCAAYAYAPRDGYGWRKYRFYYWGQGTQVTVSS | high polyreactivity
34 | QVQLVESGGGLVQAGGSLRLSCAASGIIFKQYAMGWYRQAPGKERELVAAITGSGGRTTYADSVKGRFTISRDNAMNTVYLQMNSLKPEDTAVYFCAAVGLSGWRDGYWGQGTQVTVSS | high polyreactivity
35 | QVQLQESGGGLVQAGGILRLSCAASGSIFHLHIMCWYRQEPGKERESVAAISNGTSTYYADSVKGRFTICRDNAKNTVYLQMNSPKPDDTAVYYCAALFLVSKHHHYWGEGTQVTVSS | low polyreactivity
36 | QVQLVESGGGVVQAGGSLRFSCAASGRTFVVNAMGWYREAPGKERELVAAITRRGGITYYADSVKGRFTISRDNAKNSVYLQMNSLTPEDTAVYYCAADRSYYPDTRTTYGYNYWGQGTQVTVSS | low polyreactivity
37 | QVQLVESGGGLVQAGGSLSIICAASGFTFRYYAMGWYREAPGKERELVAAISKSGTSTYYADSVKGRFTISRDNAKNTVYLQMNSLKPEDTAVYYCAARRGRRYYYWGQGTQVTVSS | high polyreactivity
38 | QVQLEESGGGLVQAGGSLRLSCAASGRTFVLNVMGWYRQAPGKERELVATISGVGSTNYADSVKGRFTISRDNAKNTVYLQMNSLKPEDTAVYYCAKDPHVGRWWDLYSPYYSWGQGTQVTVSS | low polyreactivity
39 | QVQLVESGGGLVQAGGSLRLSCAASGSIFLINAMGWYRPAPGKERELVAAITWSGGRTYYADSVKGRFTISRDNAKNTVYLQMNSLKPEDTAVYYCATRKRRSRPPTYDYWGQGTQVTVSS | high polyreactivity
40 | QVQLVESGGGLVQAGGSLRLSCAASGITLFYYAMGWYRQAPGKERELVAVISASGGSTYYADSVKGRFTISRDNAKNTVYLQMNSLKPEDTAVYYCAAVAYWRSSSWYYYWGQGTQVTVSS | high polyreactivity
41 | QVQLVESGGGLVQAGGSLRLSCAASGRIFDFNAMGWYRQAPGKEREVVAAISSGGRTKYADSVKGRFTISRDNAKNTVYLQMNSLKPEDTAVYYCAASGSQPDDYWGQGTQVTVSS | high polyreactivity
42 | QVQLVESGGGLVQAGGSLRLSCAASGRTFRFYAMGWYRQAPGKERELVAAISWNGGRTYYADSVKGRFTISRDNAKNTVYLQMNSLKPEDTAFYYCAKDRGGPFYWRYPLGYWGQGTQVTVSS | high polyreactivity
43 | QVQLVESGGGLVQAGGSLRLSCAASGRIFVYKAMGSYRQAPGKERELVASITSSGGSTYYADSVKGRFTISRDNAKNTVYLQMNSLKPEDTAVYYCAADVQPDTRSTPEMDYWGQGTQVTVSS | low polyreactivity
